Measured values published in paper PMC2885190 (The Journal of Biological Chemistry, 2010).
Residue numbers refer to the chain shown, from its start.

Tests used:
[1] = biological target: T1, Recombinant gp120 from HIV-1 IIIB (HIV-1 IIIB, UniProt P04578); assay: cell-based or functional assay
[2] = biological target: T1, Recombinant gp120 from HIV-1 IIIB; assay: SPR

B1: A12 mutant 1 (Tyr101 to Ala101) (VHH)
VHH: AVQLVESGGGLVQAGGSLRLSCTASGRISSSYDMGWFRQAPGKEREFVAAISWSGGTTDYADSVKGRFAISKDNAKNAVSLQMNSLKPEDTAVYYCAAKWRPLRYSDYPSNSDYADWGQGTQVTVSS
neutralisation of HIV-1 IIIB, TZM-bl luciferase assay, IC50 [1]: < 1 µg/mL

B2: A12 mutant 2 (Tyr101 to Asn101) (VHH)
VHH: B1 VHH with A115N
neutralisation of HIV-1 IIIB, TZM-bl luciferase assay, IC50 [1]: < 1 µg/mL

B3: mutant 7 of A12/D7 (VHH)
VHH: B1 VHH with V12A, A24V, I28T, Y32H, D59N, Y108N, A115N
neutralisation of HIV-1 IIIB, TZM-bl luciferase assay, IC50 [1]: < 1 µg/mL

B4: D7 VHH (VHH)
VHH: B1 VHH with V12A, A24V, I28T, Y32H, D59N, Y108N, A115N, D116Y
Kd [2]: 2.9 nM | koff [2]: 0.000551 s⁻¹ | kon [2]: 155000 M⁻¹ s⁻¹

B5: A12 mutant 3 (Tyr101 to Gln101) (VHH)
VHH: B1 VHH with A115Q
neutralisation of HIV-1 IIIB, TZM-bl luciferase assay, IC50 [1]: < 1 µg/mL

B6: A12 VHH (VHH)
VHH: B1 VHH with A115Y
Kd [2]: 0.1 nM | koff [2]: 2.98e-05 s⁻¹ | kon [2]: 273000 M⁻¹ s⁻¹
